The chains are these.
B1: GLS3000 Q27D (antibody, name in Kabat numbering, V domains shown)
VH: QVQLVESGGGVVQPGRSLRLSCAASGFTFSNAWMHWVRQAPGKGLEWVAQIKAKSNNYATYYAESVKGRFTISRDDSKNSLYLQMNSLKTEDTAVYYCRYVHYGAYYGVDAWGQGTTVTVSS
VL: DIVMTQSPLSLPVTPGEPASISCRSSDSLVHSNRNTYLHWYQQKPGQAPRLLIYKVSNRFSGVPDRFSGSGSGTDFTLKISRVEAEDVGVYYCGQGTQVPYTFGQGTKLEIK
notes: one-arm format as m2
B2: GLS3000 Q90Y (antibody, name in Kabat numbering, V domains shown)
VH: B1 VH
VL: B1 VL with D27Q, Q95Y
notes: one-arm format as m2
B3: GLS3000 Q90D (antibody, name in Kabat numbering, V domains shown)
VH: B1 VH
VL: B1 VL with D27Q, Q95D
notes: one-arm format as m2
B4: GLS3000 R24T (antibody, name in Kabat numbering, V domains shown)
VH: B1 VH
VL: B1 VL with R24T, D27Q
notes: one-arm format as m2
B5: GLS3000 R24Y (antibody, name in Kabat numbering, V domains shown)
VH: B1 VH
VL: B1 VL with R24Y, D27Q
notes: one-arm format as m2
B6: GLS3000 Q93P (antibody, name in Kabat numbering, V domains shown)
VH: B1 VH
VL: B1 VL with D27Q, Q98P
notes: one-arm format as m2
B7: GLS3000 R29G (antibody, name in Kabat numbering, V domains shown)
VH: B1 VH
VL: B1 VL with D27Q, R34G
notes: one-arm format as m2
B8: GLS3000 R24P (antibody, name in Kabat numbering, V domains shown)
VH: B1 VH
VL: B1 VL with R24P, D27Q
notes: one-arm format as m2
B9: GLS3000 R29A (antibody, name in Kabat numbering, V domains shown)
VH: B1 VH
VL: B1 VL with D27Q, R34A
notes: one-arm format as m2
B10: GLS3000 R54A (antibody, name in Kabat numbering, V domains shown)
VH: B1 VH
VL: B1 VL with D27Q, R59A
notes: one-arm format as m2
B11: GLS3000 R29T (antibody, name in Kabat numbering, V domains shown)
VH: B1 VH
VL: B1 VL with D27Q, R34T
notes: one-arm format as m2
B12: GLS3000 R29V (antibody, name in Kabat numbering, V domains shown)
VH: B1 VH
VL: B1 VL with D27Q, R34V
notes: one-arm format as m2
B13: GLS3000 R29I (antibody, name in Kabat numbering, V domains shown)
VH: B1 VH
VL: B1 VL with D27Q, R34I
notes: one-arm format as m2
B14: GLS3000 R29L (antibody, name in Kabat numbering, V domains shown)
VH: B1 VH
VL: B1 VL with D27Q, R34L
notes: one-arm format as m2
B15: GLS3000 R54E (antibody, name in Kabat numbering, V domains shown)
VH: B1 VH
VL: B1 VL with D27Q, R59E
notes: one-arm format as m2
B16: GLS3000 R24A (antibody, name in Kabat numbering, V domains shown)
VH: B1 VH
VL: B1 VL with R24A, D27Q
notes: one-arm format as m2
B17: GLS3000 R29D (antibody, name in Kabat numbering, V domains shown)
VH: B1 VH
VL: B1 VL with D27Q, R34D
notes: one-arm format as m2
B18: GLS3000 R24G (antibody, name in Kabat numbering, V domains shown)
VH: B1 VH
VL: B1 VL with R24G, D27Q
notes: one-arm format as m2
B19: GLS3000 R45E (antibody, name in Kabat numbering, V domains shown)
VH: B1 VH
VL: B1 VL with D27Q, R50E
notes: one-arm format as m2
B20: GLS3000 Q93S (antibody, name in Kabat numbering, V domains shown)
VH: B1 VH
VL: B1 VL with D27Q, Q98S
notes: one-arm format as m2
B21: GLS3000 R29S (antibody, name in Kabat numbering, V domains shown)
VH: B1 VH
VL: B1 VL with D27Q, R34S
notes: one-arm format as m2
B22: GLS3000 Q90S (antibody, name in Kabat numbering, V domains shown)
VH: B1 VH
VL: B1 VL with D27Q, Q95S
notes: one-arm format as m2
B23: GLS3000 Q27R (antibody, name in Kabat numbering, V domains shown)
VH: B1 VH
VL: B1 VL with D27R
notes: one-arm format as m2
B24: GLS3000 R29Y (antibody, name in Kabat numbering, V domains shown)
VH: B1 VH
VL: B1 VL with D27Q, R34Y
notes: one-arm format as m2
B25: GLS3000 R24Q (antibody, name in Kabat numbering, V domains shown)
VH: B1 VH
VL: B1 VL with R24Q, D27Q
notes: one-arm format as m2
B26: GLS3000 Q27P (antibody, name in Kabat numbering, V domains shown)
VH: B1 VH
VL: B1 VL with D27P
notes: one-arm format as m2
B27: GLS3000 R45Q (antibody, name in Kabat numbering, V domains shown)
VH: B1 VH
VL: B1 VL with D27Q, R50Q
notes: one-arm format as m2
B28: GLS3000 Q93D (antibody, name in Kabat numbering, V domains shown)
VH: B1 VH
VL: B1 VL with D27Q, Q98D
notes: one-arm format as m2
B29: GLS3000 Q90A (antibody, name in Kabat numbering, V domains shown)
VH: B1 VH
VL: B1 VL with D27Q, Q95A
notes: one-arm format as m2
B30: GLS3000 R45D (antibody, name in Kabat numbering, V domains shown)
VH: B1 VH
VL: B1 VL with D27Q, R50D
notes: one-arm format as m2
B31: GLS3000 Q27E (antibody, name in Kabat numbering, V domains shown)
VH: B1 VH
VL: B1 VL with D27E
notes: one-arm format as m2
B32: GLS3000 Q90P (antibody, name in Kabat numbering, V domains shown)
VH: B1 VH
VL: B1 VL with D27Q, Q95P
notes: one-arm format as m2
B33: GLS3000 R24E (antibody, name in Kabat numbering, V domains shown)
VH: B1 VH
VL: B1 VL with R24E, D27Q
notes: one-arm format as m2
B34: GLS3000 Q90E (antibody, name in Kabat numbering, V domains shown)
VH: B1 VH
VL: B1 VL with D27Q, Q95E
notes: one-arm format as m2
B35: GLS3000 R24S (antibody, name in Kabat numbering, V domains shown)
VH: B1 VH
VL: B1 VL with R24S, D27Q
notes: one-arm format as m2
B36: GLS3000 Q93E (antibody, name in Kabat numbering, V domains shown)
VH: B1 VH
VL: B1 VL with D27Q, Q98E
notes: one-arm format as m2
B37: GLS3000 R24D (antibody, name in Kabat numbering, V domains shown)
VH: B1 VH
VL: B1 VL with R24D, D27Q
notes: one-arm format as m2
B38: GLS3000 Q93Y (antibody, name in Kabat numbering, V domains shown)
VH: B1 VH
VL: B1 VL with D27Q, Q98Y
notes: one-arm format as m2
B39: GLS3000 R29P (antibody, name in Kabat numbering, V domains shown)
VH: B1 VH
VL: B1 VL with D27Q, R34P
notes: one-arm format as m2
B40: GLS3000 Q27L (antibody, name in Kabat numbering, V domains shown)
VH: B1 VH
VL: B1 VL with D27L
notes: one-arm format as m2
B41: GLS3000 R54D (antibody, name in Kabat numbering, V domains shown)
VH: B1 VH
VL: B1 VL with D27Q, R59D
notes: one-arm format as m2
B42: GLS3000 Q93A (antibody, name in Kabat numbering, V domains shown)
VH: B1 VH
VL: B1 VL with D27Q, Q98A
notes: one-arm format as m2
B43: GLS3000 Q93R (antibody, name in Kabat numbering, V domains shown)
VH: B1 VH
VL: B1 VL with D27Q, Q98R
notes: one-arm format as m2

Numbering of substitutions follows the chain as printed.

In the assay the target is CD3ε homodimer protein (human, UniProt P07766 23-126, limits assumed). The assay is described as follows: SPR, immobilized CD3ε homodimer.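 Further: biacore T200 surface plasmon resonance at 25 °C, antibody variants flowed as analytes over amine-coupled CD3ε homodimer on a CM4 chip, variant binding amount divided by that of GLS3000 antibody.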 On the technique in general: SPR reads the build-up and loss of mass on a sensor chip optically.
Chain of CD3ε homodimer protein (P07766 23-126 limits assumed): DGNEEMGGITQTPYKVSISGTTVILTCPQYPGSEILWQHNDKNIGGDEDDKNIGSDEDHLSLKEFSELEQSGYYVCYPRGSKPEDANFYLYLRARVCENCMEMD
For B1, the “ratio of amounts bound (vs GLS3000)” value came out at 0.85.

For B2, the “ratio of amounts bound (vs GLS3000)” value was 0.17.

Turning to B3, the “ratio of amounts bound (vs GLS3000)” value was determined as 0.19.

Take B4: the “ratio of amounts bound (vs GLS3000)” value is 0.88.

Take B5: the “ratio of amounts bound (vs GLS3000)” value is 0.87.

Turning to B6, the “ratio of amounts bound (vs GLS3000)” value stood at 0.25.

As for B7, the “ratio of amounts bound (vs GLS3000)” value turned out to be 0.67.

On to B8, for which the “ratio of amounts bound (vs GLS3000)” value turned out to be 0.7.

Take B9: the “ratio of amounts bound (vs GLS3000)” value is 0.63.

Regarding B10, the “ratio of amounts bound (vs GLS3000)” value stood at 0.69.

Regarding B11, the “ratio of amounts bound (vs GLS3000)” value came out at 0.63.

For B12, the “ratio of amounts bound (vs GLS3000)” value came to 0.34.

As to B13, the “ratio of amounts bound (vs GLS3000)” value is 0.37.

With B14, the “ratio of amounts bound (vs GLS3000)” value turned out to be 0.56.

B15: the “ratio of amounts bound (vs GLS3000)” value stood at 0.58.

For the molecule B16, the “ratio of amounts bound (vs GLS3000)” value is 0.86.

Consider B17, for which the “ratio of amounts bound (vs GLS3000)” value turned out to be 0.41.

Regarding B18, the “ratio of amounts bound (vs GLS3000)” value came out at 0.89.

As for B19, the “ratio of amounts bound (vs GLS3000)” value was 0.75.

Regarding B20, the “ratio of amounts bound (vs GLS3000)” value is 0.96.

Take B21: the “ratio of amounts bound (vs GLS3000)” value is 0.68.

Regarding B22, the “ratio of amounts bound (vs GLS3000)” value amounted to 0.73.

Take B23: the “ratio of amounts bound (vs GLS3000)” value is 1.19.

As to B24, the “ratio of amounts bound (vs GLS3000)” value is 0.69.

As to B25, the “ratio of amounts bound (vs GLS3000)” value was 0.9.

On to B26, for which the “ratio of amounts bound (vs GLS3000)” value was found to be 0.29.

For the molecule B27, the “ratio of amounts bound (vs GLS3000)” value was 0.86.

In the case of B28, the “ratio of amounts bound (vs GLS3000)” value was found to be 0.72.

Consider B29, for which the “ratio of amounts bound (vs GLS3000)” value was 0.5.

B30: the “ratio of amounts bound (vs GLS3000)” value was 0.77.

With B31, the “ratio of amounts bound (vs GLS3000)” value was found to be 0.88.

As for B32, the “ratio of amounts bound (vs GLS3000)” value turned out to be 0.27.

For the molecule B33, the “ratio of amounts bound (vs GLS3000)” value is 0.83.

B34: the “ratio of amounts bound (vs GLS3000)” value was found to be 0.85.

As to B35, the “ratio of amounts bound (vs GLS3000)” value worked out at 0.89.

B36: the “ratio of amounts bound (vs GLS3000)” value stood at 0.75.

Regarding B37, the “ratio of amounts bound (vs GLS3000)” value was determined as 0.75.

With B38, the “ratio of amounts bound (vs GLS3000)” value turned out to be 0.87.

Take B39: the “ratio of amounts bound (vs GLS3000)” value came to 0.31.

As for B40, the “ratio of amounts bound (vs GLS3000)” value was 0.92.

Regarding B41, the “ratio of amounts bound (vs GLS3000)” value turned out to be 0.36.

Turning to B42, the “ratio of amounts bound (vs GLS3000)” value amounted to 0.85.

As for B43, the “ratio of amounts bound (vs GLS3000)” value came to 1.13.

The record behind these values is patent publication US20220040297A1 (Chugai, published 2022).
